Target: aSyn-MFP (alpha-synuclein with C-terminal MFP/mMaroon1, single-fusion acceptor) (UniProt P37840)
Test: FRET or BRET

FRET efficiency E (Ex 473 nm): 0.266
FRET efficiency E (Ex 532 nm): 0.229
Substance: O-aSyn (alpha-synuclein with N-terminal OFP/mCyRFP1, single-fusion donor) (from UniProt P37840 1-140) (natural protein)

Reference: article PMC10338669
